Source: US20250101446A1, “METHOD FOR GENETIC TRANSFORMATION OF PLANT ORGANELLE GENOME AND USES THEREOF” (Solar Grants Biotechnology Inc., priority 2022, published 2025)

Legend:
[1] = tested on: human metastatic breast cancer cell line MDA-MB-231; assay: IL-6 secretion by MDA-MB-231 cells (P1 stimulation, plantakine pre-incubation; ELISA); format: cell-based; conditions: pre-incubated 3 h at the indicated concentrations
Procedure: IL-6 secretion by the human metastatic breast cancer cell line MDA-MB-231 into the conditioned media was measured by ELISA. The cells were pre-incubated for 3 h in the presence of plant-produced recombinant IL-38 or IL-37b at the indicated concentrations (ng/ml) prior to stimulation with peptide P1 (10 mM). PBS (1×) was added to the control. Shown are the average results of 3 independent experiments. ** P<0.01; * P<0.05, compared with the control.
Correct folding of plant-produced IL-38 and IL-37b anti-inflammatory cytokines was assessed by enzyme-linked immunosorbent assay (ELISA) using the DuoSet Human IL-38/IL-1F10 kit (R&D systems) and the Human IL-37/IL-1F7 uncoated ELISA kit (Invitrogen), respectively, following the instructions of the manufacturers. Secreted IL-6 was assessed using the Human IL-6 Uncoated ELISA kit (Invitrogen).

[2] = tested on: LPS-stimulated PBMCs; assay: Cytokine secretion from LPS-stimulated PBMCs treated with plantakines (multiplex Luminex); format: cell-based, human
Procedure: The bioactivity of our plantakines IL-37b and IL-38 was assessed by monitoring the secretion of 11 cytokines, generally regarded as inflammatory markers, from PBMCs stimulated with an IA. Freshly isolated human PBMCs were subjected to various treatments-combinations of the IAs with the plantakines at different concentrations. Two different model IAs were used, either the bacterial lipopolysaccharides (LPS) or a lectin from Phaseolus vulgaris (phytohaemagglutinin, PHA); each of the IAs was applied onto cells separately, each IA was applied at two concentrations: […]; PHA at 5 and 10 μg/mL. Each IA at each concentration was applied in combination with one of the two plantakines, each of them at three different concentrations: 1, 10 and 100 ng/ml of the monomeric forms present in the purified extracts. Also included were treatments comprised of either IA at their lower concentrations, in combination with both plantakines at 10 ng/ml concentration in order to assess possible synergistic effects. Cells with only IAs applied represented the reference (positive controls for each concentration), cells without any treatment represented the basal level (negative control). The levels of eleven different pro-inflammatory cytokines secreted into the medium from the PBMCs-GM-SCF, IFNγ. TNFα, IL-1α, IL-1β, IL-6, IL-8, IL-22, IL12, IL-17 and IL-10 were compared between the treatments and the controls. We applied Generalized Estimating Equation (GEE) model for the statistical data analysis. This statistical approach allows for nested observations and was used to test the effects of the plantakines IL-37b and IL-38 and their dosage in the context of IA-stimulated PBMCs inflammatory responses.
After isolation, the PBMCs from each donor separately were counted, plated in equal numbers per well and stimulated for 24 h with the applied treatments. Control wells on the plate contained media only (as basal level controls), and LPS and PHA (as positive controls at their corresponding concentrations). After the 24 h treatments stimulation the PBMCs' culture supernatants were used in the multiplex Luminex platform-assisted analysis of the concentrations of the 11 secreted pro-inflammatory cytokines.
The whole blood from 5 random human donors was collected in ACD Vacutainer tubes and immediately processed for isolation of PBMCs by gradient density centrifugation using Lympholyte. […] 5% CO2 and >80% humidity. PBMCs were treated with one of two IAs at 2 concentrations each ([…]; PHA at 5 and 10 μg/mL) in combination with two test items (plant-produced IL-37b or IL-38) at three concentrations each (1, 10 and 100 ng/ml), based on the monomeric form amounts estimated with densitometry (ImageJ). Each treatment was tested in triplicates. Control wells contained media only (negative control, basal level of detection) and the examined IAs at both tested concentrations as the positive controls. The PBMCs were incubated for 24 hours after the stimulation for analysis of the levels of the secreted cytokines that were determined in the culture supernatant using a multiplex immunoassay (MAGPix®, Luminex), analytes were selected from the Milliplex panel HCYTOMAG-60K, sensitivity range of […]. All parameters of the Milliplex panel cytokines analysis using Luminex platform were validated (Millipore-Sigma).
Non-linear logarithm transformation was performed to address non-normality of distribution of Luminex-derived numeric data. Generalized Estimating Equation (GEE) method was used in the analysis of nested (correlated) structure of the data. Secreted inflammatory cytokine values were used as dependent variables and test item (plantakines) with dosage as independent predictors (factors). Separate analyses were conducted for each of the 11 monitored cytokines and each inflammatory agent/concentration combination. Analysis was performed using SPSS software version 27 using the level of significance 0.05 (p-values <0.05 are reported as statistically significant). […]

B1: plant-produced recombinant human IL-38, mature form C2-W152 with C-terminal 7xHIS tag (ligand)
chain: CSLPMARYYIIKYADQKALYTRDGQLLVGDPVADNCCAEKICILPNRGLARTKVPIFLGIQGGSRCLACVETEEGPSLQLEDVNIEELYKGGEEATRFTFFQSSSGSAFRLEAAAWPGWFLCGPAEPQQPVQLTKESEPSARTKFYFEQSWHHHHHHH
notes: range 2-152; also called rhIL-38; plantakine IL-38
attenuating effect on P1-induced IL-6 secretion (in words) [1]: dose-dependent
secreted GM-CSF level modulation vs positive control ([2]; 1 ng/mL, LPS 150 pg/mL): −59.4%, p < 0.001
secreted IL-1α level modulation vs positive control ([2]; 1 ng/mL, LPS 150 pg/mL): −25.9%, p < 0.001
secreted IL-1β level modulation vs positive control ([2]; 1 ng/mL, LPS 150 pg/mL): −27.4%, p < 0.001
secreted IL-6 level modulation vs positive control ([2]; 1 ng/mL, LPS 150 pg/mL): −7.7%, p = 0.178
secreted IL-8 level modulation vs positive control ([2]; 1 ng/mL, LPS 150 pg/mL): 22.1%, p = 0.625
secreted IL-10 level modulation vs positive control ([2]; 1 ng/mL, LPS 150 pg/mL): −14.8%, p = 0.040
secreted IL-12 level modulation vs positive control ([2]; 1 ng/mL, LPS 150 pg/mL): 14.9%, p = 0.607
secreted IL-17 level modulation vs positive control ([2]; 1 ng/mL, LPS 150 pg/mL): −21.3%, p = 0.004
secreted IL-22 level modulation vs positive control ([2]; 1 ng/mL, LPS 150 pg/mL): −38.1%, p = 0.065
secreted TNFα level modulation vs positive control ([2]; 1 ng/mL, LPS 150 pg/mL): −36.9%, p = 0.035
secreted GM-CSF level modulation vs positive control ([2]; 1 ng/mL, LPS 300 pg/mL): −14.1%, p = 0.118
secreted IFNγ level modulation vs positive control ([2]; 1 ng/mL, LPS 300 pg/mL): −16.5%, p = 0.006
secreted IL-1α level modulation vs positive control ([2]; 1 ng/mL, LPS 300 pg/mL): −7.7%, p = 0.178
secreted IL-1β level modulation vs positive control ([2]; 1 ng/mL, LPS 300 pg/mL): −13.1%, p < 0.001
secreted IL-6 level modulation vs positive control ([2]; 1 ng/mL, LPS 300 pg/mL): −5.8%, p = 0.323
secreted IL-10 level modulation vs positive control ([2]; 1 ng/mL, LPS 300 pg/mL): 6.2%, p = 0.006
secreted IL-12 level modulation vs positive control ([2]; 1 ng/mL, LPS 300 pg/mL): 1.9%, p = 0.906
secreted IL-17 level modulation vs positive control ([2]; 1 ng/mL, LPS 300 pg/mL): −28.8%, p < 0.001
secreted IL-22 level modulation vs positive control ([2]; 1 ng/mL, LPS 300 pg/mL): −40.0%, p < 0.001
secreted TNFα level modulation vs positive control ([2]; 1 ng/mL, LPS 300 pg/mL): −49.3%, p = 0.184
secreted GM-CSF level modulation vs positive control ([2]; 10 ng/mL, LPS 150 pg/mL): 7.3%, p = 0.230
secreted IFNγ level modulation vs positive control ([2]; 10 ng/mL, LPS 150 pg/mL): −16.5%, p = 0.012
secreted IL-1α level modulation vs positive control ([2]; 10 ng/mL, LPS 150 pg/mL): −14.8%, p < 0.001
secreted IL-1β level modulation vs positive control ([2]; 10 ng/mL, LPS 150 pg/mL): −13.1%, p = 0.002
secreted IL-6 level modulation vs positive control ([2]; 10 ng/mL, LPS 150 pg/mL): 0.0%, p = 1.000
secreted IL-8 level modulation vs positive control ([2]; 10 ng/mL, LPS 150 pg/mL): 8.3%, p = 0.639
secreted IL-10 level modulation vs positive control ([2]; 10 ng/mL, LPS 150 pg/mL): −3.9%, p = 0.264
secreted IL-12 level modulation vs positive control ([2]; 10 ng/mL, LPS 150 pg/mL): 51.1%, p = 0.522
secreted IL-17 level modulation vs positive control ([2]; 10 ng/mL, LPS 150 pg/mL): −16.5%, p = 0.012
secreted IL-22 level modulation vs positive control ([2]; 10 ng/mL, LPS 150 pg/mL): −29.4%, p = 0.008
secreted TNFα level modulation vs positive control ([2]; 10 ng/mL, LPS 150 pg/mL): −44.0%, p = 0.116
secreted GM-CSF level modulation vs positive control ([2]; 10 ng/mL, LPS 300 pg/mL): 29.1%, p < 0.001
secreted IFNγ level modulation vs positive control ([2]; 10 ng/mL, LPS 300 pg/mL): −24.4%, p = 0.018
secreted IL-1α level modulation vs positive control ([2]; 10 ng/mL, LPS 300 pg/mL): 2.0%, p = 0.550
secreted IL-1β level modulation vs positive control ([2]; 10 ng/mL, LPS 300 pg/mL): −2.0%, p = 0,550
secreted IL-6 level modulation vs positive control ([2]; 10 ng/mL, LPS 300 pg/mL): 2.0%, p = 0.736
secreted IL-8 level modulation vs positive control ([2]; 10 ng/mL, LPS 300 pg/mL): −5.8%, p = 0.469
secreted IL-10 level modulation vs positive control ([2]; 10 ng/mL, LPS 300 pg/mL): 8.3%, p = 0.178
secreted IL-12 level modulation vs positive control ([2]; 10 ng/mL, LPS 300 pg/mL): 10.6%, p = 0.586
secreted IL-17 level modulation vs positive control ([2]; 10 ng/mL, LPS 300 pg/mL): −31.6%, p < 0.001
secreted IL-22 level modulation vs positive control ([2]; 10 ng/mL, LPS 300 pg/mL): −45.0%, p < 0.001
secreted TNFα level modulation vs positive control ([2]; 10 ng/mL, LPS 300 pg/mL): −40.5%, p = 0.311
secreted GM-CSF level modulation vs positive control ([2]; 100 ng/mL, LPS 150 pg/mL): 21.2%, p = 0.013
secreted IFNγ level modulation vs positive control ([2]; 100 ng/mL, LPS 150 pg/mL): −40.5%, p = 0.008
secreted IL-1α level modulation vs positive control ([2]; 100 ng/mL, LPS 150 pg/mL): −3.9%, p = 0.380
secreted IL-1β level modulation vs positive control ([2]; 100 ng/mL, LPS 150 pg/mL): −13.1%, p = 0.002
secreted IL-6 level modulation vs positive control ([2]; 100 ng/mL, LPS 150 pg/mL): 0.0%, p = 1.000
secreted IL-8 level modulation vs positive control ([2]; 100 ng/mL, LPS 150 pg/mL): −9.5%, p = 0.077
secreted IL-10 level modulation vs positive control ([2]; 100 ng/mL, LPS 150 pg/mL): −30.2%, p < 0.001
secreted IL-12 level modulation vs positive control ([2]; 100 ng/mL, LPS 150 pg/mL): 17.2%, p = 0.544
secreted IL-17 level modulation vs positive control ([2]; 100 ng/mL, LPS 150 pg/mL): −24.4%, p = 0.025
secreted IL-22 level modulation vs positive control ([2]; 100 ng/mL, LPS 150 pg/mL): −23.7%, p = 0.241
secreted TNFα level modulation vs positive control ([2]; 100 ng/mL, LPS 150 pg/mL): −34.3%, p = 0.232
secreted GM-CSF level modulation vs positive control ([2]; 100 ng/mL, LPS 300 pg/mL): 88.8%, p < 0.001
secreted IFNγ level modulation vs positive control ([2]; 100 ng/mL, LPS 300 pg/mL): −21.3%, p < 0.001
secreted IL-1α level modulation vs positive control ([2]; 100 ng/mL, LPS 300 pg/mL): 6.2%, p = 0.188
secreted IL-1β level modulation vs positive control ([2]; 100 ng/mL, LPS 300 pg/mL): 2.0%, p = 0.648
secreted IL-6 level modulation vs positive control ([2]; 100 ng/mL, LPS 300 pg/mL): 0.0%, p = 1.000
secreted IL-8 level modulation vs positive control ([2]; 100 ng/mL, LPS 300 pg/mL): 46.2%, p = 0.500
secreted IL-10 level modulation vs positive control ([2]; 100 ng/mL, LPS 300 pg/mL): −28.8%, p < 0.001
secreted IL-12 level modulation vs positive control ([2]; 100 ng/mL, LPS 300 pg/mL): 17.4%, p = 0.271
secreted IL-17 level modulation vs positive control ([2]; 100 ng/mL, LPS 300 pg/mL): −30.2%, p < 0.001
secreted IL-22 level modulation vs positive control ([2]; 100 ng/mL, LPS 300 pg/mL): −31.8%, p = 0.003
secreted TNFα level modulation vs positive control ([2]; 100 ng/mL, LPS 300 pg/mL): −13.1%, p = 0.581
Decreased secretion: number of treatments with statistically significant modulation ([2]; LPS 150 pg/mL): 16
Increased secretion: number of treatments with statistically significant modulation ([2]; LPS 150 pg/mL): 1
Decreased secretion: number of treatments with statistically significant modulation ([2]; LPS 300 pg/mL): 12
Increased secretion: number of treatments with statistically significant modulation ([2]; LPS 300 pg/mL): 2
